Test results as given in the supplement of paper PMC9732359.
± gives the uncertainty stated by the source.

Test: protein stability index of a GFP-peptide fusion (yeast GPS) (PSI 1-4); higher = more stable; sorted into four equal gates, so the index is relative within each strain
Procedure, shortened: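 Plasmids in a pooled yeast library fused tiled 17-residue yeast protein peptides downstream of GFP and also expressed Cherry. Mid-log cultures grown without leucine were sorted into four equal gates by GFP/Cherry fluorescence ratio. Each gate's plasmids were PCR-amplified and Illumina-sequenced, and reads were matched to strains by barcodes. The protein stability index is derived by multiplying each gate's read frequency by its gate number and summing the results.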

Sequence	protein stability index (doa10∆)	protein stability index (pdr5∆)	protein stability index (san1∆)	protein stability index (ubr1∆)
DDSDNVMSSDDENAPVA [PRE10]	3.12 ± 0.087	3.42 ± 0.11	3.49 ± 0.11	3.11 ± 0.14
PSHYPHPYEYEIDHQEY [RRP6]	2.41 ± 0.055	2.58 ± 0.055	2.17 ± 0.078	2.27 ± 0.035
EVVEVQEETVVEQTAEV [RPS12]	3.15 ± 0.1	3.36 ± 0.11	2.97 ± 0.076	3.24 ± 0.097
LQEIYQTDAIKSDEAKW [RPN5]	2.34 ± 0.09	2.5 ± 0.13	2.13 ± 0.13	2.16 ± 0.17
TANDRQINNVHLIPNEI [RPN4]	2.88 ± 0.063	3.02 ± 0.062	2.92 ± 0.052	2.94 ± 0.055
RGYFITQEEVELPLEDF [RPB5]	3.46 ± 0.19	3.01 ± 0.16	3.28 ± 0.15	3.14 ± 0.086
AKRHRKILRDNIQGITK [HHF1]	3.01 ± 0.094	3.44 ± 0.098	3.21 ± 0.058	3.07 ± 0.069
PSEDVAAPKKTRKAVRP [RPL6B]	2.74 ± 0.089	3.08 ± 0.1	2.93 ± 0.085	2.91 ± 0.073
KDIIDPKLTSIFERMIE [RPN2]	2.68 ± 0.14	2.99 ± 0.11	2.93 ± 0.078	2.66 ± 0.1
FEVLAPKWERVFLFDIE [RRI2]	3.41 ± 0.12	2.72 ± 0.085	2.92 ± 0.1	2.52 ± 0.068
EGNQIIVFVHSRKETSR [BRR2]	2.01 ± 0.055	2.28 ± 0.054	1.8 ± 0.072	2.48 ± 0.05
ESKSLLNLFSNVLKAPF [SIR4]	2.39 ± 0.086	2.16 ± 0.13	1.56 ± 0.21	2.48 ± 0.077
TLIVNTDVEKSDPAAKK [SRP21]		3.13 ± 0.3		3.7 ± 0.16
TADAEILINTARIHAQN [PRE9]	2.92 ± 0.094	2.85 ± 0.073	2.83 ± 0.099	2.96 ± 0.072
NACAKYGRDDMENIKKS [ISW2]	2.91 ± 0.11	2.93 ± 0.12	3.08 ± 0.078	3.06 ± 0.086
GNGLVDENKVEAFKSLY [YAR002W/NUP60]	3.35 ± 0.1	3.14 ± 0.12	3.53 ± 0.056	3.3 ± 0.053
DHAIVTSPTMPDYYVSI [RPT2]	2.62 ± 0.11	2.67 ± 0.17	2.58 ± 0.063	2.86 ± 0.12
MSLVVQEQGSFQHILRL [RPS18A]	2.95 ± 0.14	2.83 ± 0.12	2.65 ± 0.1	2.92 ± 0.1
RVQVGDIVTVGQCRPIS [RPS11A]	3.14 ± 0.16	3.26 ± 0.082	3.07 ± 0.067	3.23 ± 0.074
NENKVIIELPNEKFEIE [SRB4]	2.89 ± 0.077	2.86 ± 0.081	2.94 ± 0.055	2.8 ± 0.042

Sequence	protein stability index (doa10∆)	protein stability index (pdr5∆)	protein stability index (san1∆)	protein stability index (ubr1∆)
EMTLPTSPLYMDPGAPL [SSN2]	3.07 ± 0.11	2.8 ± 0.11	2.8 ± 0.15	2.81 ± 0.11
YFFYASRPEYSCTFWSD [YJL039C/NUP192]	1.22 ± 0.069	1.52 ± 0.084	1.31 ± 0.14	1.62 ± 0.054
ALVAYTPTDVIGVVSLT [RRP6]	1.96 ± 0.091	1.57 ± 0.054	1.37 ± 0.11	1.93 ± 0.072
KKRKNKSSGSSMATPTH [ROX3]	2.99 ± 0.071	3.12 ± 0.077	2.96 ± 0.051	3.28 ± 0.063
TANDQYSSILGNSFNKS [YCG1]	3.13 ± 0.069	3.18 ± 0.067	3.31 ± 0.038	3.46 ± 0.058
EIGLLPEDALVNDFSDI [SMC3]	3.44 ± 0.089	2.91 ± 0.12	3.19 ± 0.088	3.3 ± 0.11
LDLSRSNGVLNVDNQTS [RPS17A]		3.09 ± 0.22		
LGTLVNQKTSAVAALTE [RPL8A]	2.37 ± 0.095	2.45 ± 0.082	2.4 ± 0.15	2.25 ± 0.11
GNAPATPSSDQNPLPTR [SOH1]	3.44 ± 0.13	2.98 ± 0.065	2.63 ± 0.077	3.17 ± 0.067
PKNKLVPTLEAKRDYII [FAS1]	1.71 ± 0.071	1.59 ± 0.1	2.63 ± 0.098	2.15 ± 0.11
SFLFDVLKTLEYKLATY [NUT1]	2.33 ± 0.062	2.18 ± 0.07	3 ± 0.097	2.03 ± 0.074
TRAAKIAPRPLDLLRPV [RPL13A]	2.95 ± 0.091	3.27 ± 0.11	3.15 ± 0.081	2.89 ± 0.054
NANAGLFNKPPSTNAQN [YOR098C/NUP1]	3.1 ± 0.046	3.17 ± 0.046	3.06 ± 0.038	3.16 ± 0.034
KFGLLLQVSAQERKDFL [ECM29]	1.6 ± 0.082	1.5 ± 0.056	1.59 ± 0.2	1.57 ± 0.047
PGGILRAQHVKKLATRP [RPL34A]	3.04 ± 0.24	3.39 ± 0.21	3.37 ± 0.16	3.02 ± 0.14
PEGYKAKSISTSAKEPS [RPO31]	1.39 ± 0.085	1.51 ± 0.077	1.45 ± 0.19	1.86 ± 0.09
KQTGRDQMVVGWYHSHP [RPN11]	2.4 ± 0.12	1.97 ± 0.096	2.4 ± 0.15	1.53 ± 0.096
FDDNDSGNNYNDINISS [MED2]	3.08 ± 0.037	3.19 ± 0.039	3.05 ± 0.038	3.151 ± 0.028
LVHGIFGAKMSRTLILS [SIN4]	1.8 ± 0.063	1.41 ± 0.044	1.36 ± 0.088	1.65 ± 0.039
SNDFEEGSTIRYLAVTL [YMR129W/POM152]	2.06 ± 0.05	2.28 ± 0.049	2.12 ± 0.062	2.26 ± 0.053
